Here are results for 3 molecules from patent US20150204859, “MULTIPLEXED MICROCOLUMN DEVICES AND PROCESSES FOR SELECTION OF NUCLEIC ACID APTAMERS” (CORNELL UNIVERSITY, published 2015).

Data set [1] deals with GFP (UniProt P42212). The settings on record: RNA transcript; printed sequence is the DNA template strand (RNA is its reverse complement); microcolumn qPCR recovery fit by simulation; non-specific background binding.
The target of data set [2] is T1, hHSF1 (Homo sapiens, UniProt Q00613 Q00613:1-529). The data set can be described thus: EMSA; room temperature 2 h, 10 ug/ml tRNA; confirmed by FP (FIG. 22A); exact value only in figure. The settings on record: tags: N-terminal GST; E. coli BL21(DE3)-RIPL; label: 3'-fluorescein (5-thiosemicarbazide). As for the experimental part:
(§1) The candidate aptamers were 3′-end labeled with fluorescein 5-thiosemicarbazide (Invitrogen) as described previously (Ref. 16). 50 μL binding reactions were prepared with 2 nM fluorescently-labeled RNA and decreasing amounts of protein (2000 to 0 nM) in binding buffer containing 0.01% IGEPAL CA630, 10 μg/ml tRNA, and 3U of SUPERase•In RNase Inhibitor (Invitrogen). […] The gel was run for 80 minutes at 100 volts in refrigerated 0.5×TBE. Images were acquired using the fluorescein scan settings on a Typhoon 9400 imager (GE Healthcare Life Sciences). The resulting bands were quantified with ImageQuant software and the data was fit to the Hill equation using Igor (Wavemetrics) to estimate the equilibrium dissociation constant (KD).
(§2) The putative RNA aptamers were fluorescently end-labeled and then tested for binding to their hHSF targets using F-EMSA and FP assays (Ref. 16). An image of a typical F-EMSA result is shown in FIG. 17A for hHSF1-R5-1 aptamer binding to hHSF1 protein. […] The F-EMSA results were confirmed by the FP assays (FIGS. 22 and 23). Thus, the observed binding is not due to the affinity tags on the protein targets but rather specific domains of the targets themselves.
A general note: Mobility shift assays separate free from complexed probe on a gel.

Data set [3] deals with T2, hHSF2 (Homo sapiens, UniProt Q03933 Q03933:1-536). Put plainly: EMSA; confirmed by FP (FIG. 22B); exact value only in figure. To be noted: tags: N-terminal GST; E. coli BL21(DE3)-RIPL; label: 3'-fluorescein (5-thiosemicarbazide). Here is the method:
as §1, §2

In data set [4] the target is T3, GST tag (UniProt P08515 P08515:1-218). Put plainly: EMSA; no binding to GST tag alone; FP FIG. 22D. To be noted: tags: GST tag alone, ~30 kDa; label: 3'-fluorescein (5-thiosemicarbazide). Here is the method:
as §1, §2

In data set [5] the target is T3, GST tag. Put plainly: EMSA; no binding to GST tag alone; FP FIG. 23D. The settings on record: tags: GST tag alone, ~30 kDa; label: 3'-fluorescein (5-thiosemicarbazide). As for the experimental part:
as §1, §2

In data set [6] the target is T2, hHSF2. Put plainly: EMSA; room temperature 2 h, 10 ug/ml tRNA; confirmed by FP (FIG. 23B); exact value only in figure. To be noted: tags: N-terminal GST; E. coli BL21(DE3)-RIPL; label: 3'-fluorescein (5-thiosemicarbazide). Here is the method: as §1, §2
Data set [7] addresses T1, hHSF1. The data set can be described thus: EMSA; confirmed by FP (FIG. 23A); exact value only in figure. The settings on record: tags: N-terminal GST; E. coli BL21(DE3)-RIPL; label: 3'-fluorescein (5-thiosemicarbazide). Here is the method:
as §1, §2

T3 sequence (P08515 whole entry, one chain of several): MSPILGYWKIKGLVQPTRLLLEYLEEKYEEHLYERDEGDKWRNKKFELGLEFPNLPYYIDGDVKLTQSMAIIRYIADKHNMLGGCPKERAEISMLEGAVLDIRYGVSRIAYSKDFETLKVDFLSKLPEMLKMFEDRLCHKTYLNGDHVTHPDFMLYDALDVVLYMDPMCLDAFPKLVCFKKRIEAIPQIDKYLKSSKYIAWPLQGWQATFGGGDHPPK
T2 sequence (Q03933 whole entry, one chain of several): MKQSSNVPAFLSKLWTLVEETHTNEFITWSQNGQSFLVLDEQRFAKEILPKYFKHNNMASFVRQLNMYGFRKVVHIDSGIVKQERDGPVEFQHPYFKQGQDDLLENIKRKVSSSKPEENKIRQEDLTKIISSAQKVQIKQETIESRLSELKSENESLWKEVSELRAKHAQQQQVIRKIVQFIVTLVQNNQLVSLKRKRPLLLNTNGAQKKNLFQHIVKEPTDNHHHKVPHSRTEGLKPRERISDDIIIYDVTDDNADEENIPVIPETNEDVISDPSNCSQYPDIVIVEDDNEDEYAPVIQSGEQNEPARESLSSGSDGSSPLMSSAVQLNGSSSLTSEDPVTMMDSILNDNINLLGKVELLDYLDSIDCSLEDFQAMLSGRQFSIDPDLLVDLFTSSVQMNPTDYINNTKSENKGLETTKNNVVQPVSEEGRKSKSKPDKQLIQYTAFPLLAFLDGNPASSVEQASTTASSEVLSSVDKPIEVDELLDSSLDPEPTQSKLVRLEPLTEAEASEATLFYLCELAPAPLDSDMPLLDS
T1 sequence (Q00613 whole entry, one chain of several): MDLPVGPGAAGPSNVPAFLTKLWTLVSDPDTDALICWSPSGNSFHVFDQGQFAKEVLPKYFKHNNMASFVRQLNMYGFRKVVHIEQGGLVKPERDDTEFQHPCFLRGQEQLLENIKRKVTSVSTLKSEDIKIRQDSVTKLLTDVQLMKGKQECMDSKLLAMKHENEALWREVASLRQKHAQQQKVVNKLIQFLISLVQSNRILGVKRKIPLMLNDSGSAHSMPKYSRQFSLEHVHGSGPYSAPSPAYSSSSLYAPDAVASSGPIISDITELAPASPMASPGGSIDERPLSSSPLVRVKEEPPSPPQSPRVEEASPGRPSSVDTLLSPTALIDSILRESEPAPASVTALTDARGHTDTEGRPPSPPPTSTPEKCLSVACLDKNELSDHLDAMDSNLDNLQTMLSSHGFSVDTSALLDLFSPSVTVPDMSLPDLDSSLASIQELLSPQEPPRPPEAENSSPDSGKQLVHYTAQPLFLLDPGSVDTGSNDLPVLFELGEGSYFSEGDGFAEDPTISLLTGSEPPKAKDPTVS

As usually defined, the Kd is the concentration at which binding is half-saturated. Read a high Kd as lower affinity. Regarding “AAGCUUCGUCAAGUCUGCAGUGAANNNNNNNNNNNNNNNNNNNNNNNNNNNNNNNNNNNNNNNNNNNNNNNNNNNNNNNNNNNNNNNNNNNNNNGAAUUCGUAGAUGUGGAUCCAUUCCC [N70 random RNA library]”, the Kd in data set [1] is over 10000 nM.

B1: hHSF1-R5-1 (ssRNA)
RNA: GGGAAUGGAUCCACAUCUACGAAUUCAAUCAAGUCCCCAGACUCAGCAACACUGGACAGCGAUAUGCAGAUAACCAAGACCAAUUCACUCCAGUUCACUGCAGACUUGACGAAGCUU
Consider B1, for which the Kd in data set [2] and in data set [3] was under 20 nM each time. The binding result in data set [4] is reported as “no binding”.

B2: hHSF2-R5-2 (ssRNA)
RNA: B1 RNA
For the molecule B2, the binding result in data set [5] is on record as “no binding”. Moreover, the Kd in data set [6] and in data set [7] was under 20 nM in each case.
